“Also recorded” adds a separate entry of the source.
How the values were obtained:
[1] = test system: mice with systemic AA amyloidosis; assay: Low dose SAP-E and SAP-K in clearing systemic AA amyloid deposits (Example 17); type: in vivo, mouse; conditions: low doses
Protocol: AA amyloidosis was induced and confirmed in wild-type C57BL/6 mice as detailed in Example 10 above. After loading the amyloid deposits with human SAP as also detailed in Example 10, groups of mice (n=10 each) were treated with single doses of either 0.5 mg and 1 mg per mouse of the two different antibodies, or 6 repeated doses of 0.15 mg, given at 3 or 4 day intervals. […] All were killed on day 29 for estimation of amyloid load by Congo red staining.

[2] = biological target: T1, human SAP (Homo sapiens, UniProt P02743); assay: Biacore kinetics, human SAP captured on immobilised O-phosphoethanolamine; type: binding; conditions: CM5 chip, calcium; bivalent analyte model; 25° C.; for comparison only, avidity effect
T1 construct: from tissue; host or cells: natural human SAP, purified
Protocol: O-phosphoethanolamine was immobilised on a Biacore CM5 chip by primary amine coupling in accordance with the manufacturer's instructions. Human SAP was then captured on the surface in the presence of calcium chloride, in order to replicate in the Biacore system in vitro, the precise orientation of SAP molecules bound to amyloid fibrils in vivo. Anti SAP antibodies were then passed over this surface at 256, 64, 16, 4, 1 nM and a binding sensorgrams obtained. Analysis was carried out at 25° C. using 4% BSA, 10 mM Tris, 140 mM NaCl, 2 mM CaCl2, 0.05% surfactant P20, 0.02% Na N3, pH 8.0 as running buffer. […] Data generated were double referenced with a buffer injection over the human SAP surface and analyzed using the bivalent analyte model in the Biacore T100 evaluation software.

[3] = biological target: T1, human SAP; assay: Binding of mouse monoclonals to immobilised human SAP in vitro
Text: SAP-E and SAP-K are from two groups of anti-SAP monoclonals, each group having been tested separately for their binding to human SAP in vitro.
(§1) SAP-K was selected from among the 6 different, most avidly binding, mouse IgG2a monoclonals, derived by standard techniques from immunization with purified human SAP and a conventional fusion to produce hybridomas which were cloned by routine methods. […] This was the case regardless of whether the human SAP had been directly immobilised on plastic surfaces by non-specific adherence or by covalent attachment, or by the specific calcium dependent binding of SAP to immobilised ligands, whether amyloid fibrils or the small molecule ligand, phosphoethanolamine. SAP-K also bound well to directly immobilised SAP in the presence or absence of calcium, and if the SAP had previously been complexed with CPHPC and then covalently ‘fixed’ in the decameric SAP-CPHPC complex (Pepys, M. B. et al (2002) Targeted pharmacological depletion of serum amyloid P component for treatment of human amyloidosis. Nature, 417: 254-259; Kolstoe, S. E. et al (2009) Molecular dissection of Alzheimer's disease neuropathology by depletion of serum amyloid P component. Proc. Natl. Acad. Sci. USA, 106: 7619-7623). SAP-E also bound well to human SAP in all these different configurations.

[4] = biological target: T2, native human SAP (Homo sapiens, UniProt P02743); assay: Double immunodiffusion in agarose gel; type: binding; conditions: isolated pure human SAP and whole human serum
T2 construct: against both isolated pure human SAP and whole human serum; from tissue; host or cells: whole human serum, and isolated pure human SAP

[5] = biological target: T1, human SAP; assay: Biacore (BIAcoreX), human SAP covalently immobilised on the chip; type: binding; conditions: mean and SD of 3 replicate measurements
[6] = biological target: T1, human SAP; assay: Competition ELISA with chimeric anti-SAP mAb; type: binding; conditions: human SAP coated at 1 μg/mL; purified murine mAb
Text: A constant concentration of chimeric anti-SAP mAb was mixed with serial diluted (1:1) amounts of mouse anti-SAP mAbs. Plates were washed and the amount of chimeric antibody bound to the immobilised human SAP was detected using goat anti-human Kappa Light chain peroxidase conjugate (Sigma, A7164). The ELISA was developed using O-phenylenediamine dihydrochloride (OPD) peroxidase substrate (Sigma, P9187).

[7] = biological target: T3, human CRP (Homo sapiens, UniProt P02741); assay: Western blotting against CRP; type: binding; conditions: western blot, 500 ng and 100 ng loaded
T3 sequence (P02741 19-224): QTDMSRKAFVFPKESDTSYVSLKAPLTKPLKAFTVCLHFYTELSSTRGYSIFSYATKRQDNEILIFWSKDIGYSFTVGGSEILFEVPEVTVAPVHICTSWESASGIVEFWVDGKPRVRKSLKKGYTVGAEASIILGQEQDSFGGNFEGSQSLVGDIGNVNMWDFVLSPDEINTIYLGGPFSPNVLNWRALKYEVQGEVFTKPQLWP

[8] = test system: mice with systemic AA amyloidosis; assay: SAP-E versus SAP-K in clearing systemic AA amyloid deposits (Example 16); type: in vivo, mouse; conditions: lower doses
Protocol: AA amyloidosis was induced and confirmed in wild-type C57BL/6 mice as detailed in Example 10 above. After loading the amyloid deposits with human SAP also detailed in Example 10, groups of mice were treated with 3 mg and 1 mg per mouse of the two different antibodies. […] All mice were bled for assay of circulating anti-SAP antibody at days 1, 5 and 15 after dosing with antibody, and all were killed on day 21 for estimation of amyloid load by Congo red staining. All sera were assayed for anti-SAP activity using a robust immunoradiometric assay standardised with purified SAP-E and SAP-K respectively, spiked at known concentrations into normal mouse serum.
Amyloid load was scored by four independent expert observers all blinded to the identity of each tissue examined. The scores of all observers were, as usual highly concordant and for statistical analysis, the total scores of all observers for both spleen and liver for each mouse were summed.

[9] = biological target: T1, human SAP; assay: Immunoradiometric assay, human SAP captured by immobilised sheep polyclonal anti-human SAP antibody; type: binding; conditions: all levels of human SAP input; mean of 3 replicates
Text: as §1
Each point is the mean of 3 replicates.

[10] = biological target: T1, human SAP; assay: Western blotting and fragment epitope mapping (CNBr, chymotrypsin); type: binding
Text: This is consistent with the kinetic stability and resistance to denaturation of SAP (Manning, M. and Colón, W. (2004) Biochemistry, 43: 11248-11254).
B, SDS-PAGE analysis of SAP cleaved with CNBr. […] These were precisely confirmed by mass spectrometry. […] C, SDS-PAGE analysis of SAP digested with chymotrypsin. Left panel: Coomassie blue stain; lane 1, untreated control SAP; lane 2, SAP after chymotrypsin digestion, showing the expected major fragments corresponding to residues 1-140 and 145-204. These were precisely confirmed by mass spectrometry. Right panel: Western blot with SAP-E showing intense staining of intact untreated SAP in lanes 1 (500 ng loaded) and 2 (100 ng), and also residual intact SAP in lanes 3 and 4 which contained the chymotrypsin digested SAP at different loadings. Very weak binding of SAP-E to the residue 1-140 fragment is seen only in lane 3 which was most heavily loaded. […] D, Sequence comparison between human SAP (h) and mouse SAP (m) for residues 136-147. Top panel, differences indicated above by residues shown in black in the murine sequence. Bottom panel, position of this extended loop with 140Y at its apex shown in white in the 3D subunit structure of human SAP. The different residues in the murine sequence are shown in black. The grey spheres represent the calcium atoms bound in the ligand binding pocket.

T1 sequence (P02743 20-223): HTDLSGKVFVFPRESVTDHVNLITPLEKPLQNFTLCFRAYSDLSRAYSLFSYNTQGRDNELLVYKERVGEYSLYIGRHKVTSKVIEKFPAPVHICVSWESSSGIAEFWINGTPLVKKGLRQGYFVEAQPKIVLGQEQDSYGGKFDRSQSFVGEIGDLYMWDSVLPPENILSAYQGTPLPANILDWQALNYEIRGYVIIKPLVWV
T2 sequence (P02743 20-223): as above

- ka [2]: 31500 M⁻¹ s⁻¹
- kd [2]: 1.51e-08 s⁻¹
- binding to immobilised human SAP ([3]; abundant immobilised SAP, coating solution 100 μg/ml): more binding of SAP-E than SAP-K
- competition with SAP-K chimera [6]: no competition
- reaction with isolated pure human CRP [7]: did not react at all
- binding to native human SAP in western blotting ([10]; after agarose gel electrophoresis in physiological buffers): bound
- binding to human SAP in western blotting from reduced SDS-PAGE ([10]; denatured human SAP): only SAP-E bound
- epitope recognised ([10]; residues of human SAP, CNBr and chymotrypsin fragments): region 140-158
B1: SAP-E: mouse IgG2a monoclonal anti-human SAP antibody, VH SEQ ID NO:7, VL SEQ ID NO:9 (antibody, V domains shown)
VH: QASLQQSGTELVRSGASVKMSCKASGFTFATYNMHWIKQTPGQGLEWIGYIYPGDGNANYNQQFKGKATLTADTSSNTAYMQISSLTSEDSAVYFCARGDFDYDGGYYFDSWGQGTTLTVSS
VL: DIQMTQSPASLSASVGETVTITCRASENIYSYLAWYQQKQGRSPQLLVHNAKTLAEGVPSRVSGSGSGTHFSLKINGLQPEDFGNYYCQHHYGAPLTFGAGTKLELK
- potency in clearing amyloid, SAP-E compared with SAP-K [1]: again apparently more potent than SAP-K
- binding to human SAP in vitro ([3]; compared within the group of monoclonals): strongest binding to SAP, within their groups
- binding to native human SAP (immunoprecipitation) [4]: bound apparently equally well to native human SAP
- kd [5]: 6 ± 4 × 10^−5 sec^−1
- potency in clearing amyloid, SAP-E compared with SAP-K [8]: apparently more potent than SAP-K at the lower doses
- binding to human SAP captured by sheep polyclonal anti-human SAP [9]: SAP-E bound better than SAP-K at all levels of human SAP input; also recorded: Substantially more SAP-E than SAP-K bound at all concentrations of human SAP offered
